This is an account of results in PMC9654404, “Functional Characterization and Screening of Promiscuous Kinases and Isopentenyl Phosphate Kinases for the Synthesis of DMAPP via a One-Pot Enzymatic Cascade” (International Journal of Molecular Sciences, 2022).

Substrate in data set [1]: CC(C)=CCO
Put plainly: ADP formation, ADP colorimetric/fluorometric assay kit, Michaelis-Menten fit. The format is biochemical, Escherichia coli. To be noted: ATP co-substrate, 2 mM MgCl2, 50 mM buffer, optimal conditions (optimum pH 5.5, 50 °C), apparent Km.

Substrate in data set [2]: CC(C)=CCOP(=O)(O)O
Nature of the data set: purified protein. To be noted: ATP co-substrate, 2 mM MgCl2, 50 mM buffer, DMAP made enzymatically with SfPK, apparent Km.

Substrate in data set [3]: CC(C)=CCO
Put plainly: ADP formation, ADP colorimetric/fluorometric assay kit, Michaelis-Menten fit. It counts as biochemical, Shigella flexneri. As to conditions: ATP co-substrate, 2 mM MgCl2, 50 mM buffer, optimal conditions (optimum pH 9.0, 55 °C), apparent Km.

Substrate in data set [4]: CC(C)=CCO
Nature of the data set: purified protein. To be noted: ATP co-substrate, 2 mM MgCl2, 50 mM buffer, optimal conditions (optimum pH 7.5, 30 °C), apparent Km, 30.0 °C.

B1: EcPK (Escherichia coli promiscuous kinase) (Escherichia coli K-12) (protein)
chain: MQVDLLGSAQSAHALHLFHQHSPLVHCMTNDVVQTFTANTLLALGASPAMVIETEEASQFAAIASALLINVGTLTQPRAQAMRAAVEQAKSSQTPWTLDPVAVGALDYRRHFCHELLSFKPAAIRGNASEIMALAGIANGGRGVDTTDAAANAIPAAQTLARETGAIVVVTGEMDYVTDGHRIIGIHGGDPLMTKVVGTGCALSAVVAACCALPGDTLENVASACHWMKQAGERAVARSEGPGSFVPHFLDALWQLTQEVQA
Consider B1, for which the Km (in general, the concentration of substrate that gives half-maximal velocity) in data set [1] was 930 µM.

B2: MthIPK (Methanothermobacter thermautotrophicus isopentenyl phosphate kinase) (Methanothermobacter thermautotrophicus str. Delta H) (protein)
chain: MIILKLGGSVITRKDSEEPAIDRDNLERIASEIGNASPSSLMIVHGAGSFGHPFAGEYRIGSEIENEEDLRRRRFGFALTQNWVKKLNSHVCDALLAEGIPAVSMQPSAFIRAHAGRISHADISLIRSYLEEGMVPVVYGDVVLDSDRRLKFSVISGDQLINHFSLRLMPERVILGTDVDGVYTRNPKKHPDARLLDVIGSLDDLESLDGTLNTDVTGGMVGKIRELLLLAEKGVESEIINAAVPGNIERALLGEEVRGTRITGKH
Regarding B2, in the data set “purified protein [2]” (optimal conditions (optimum pH 7.5, 30 °C), 30.0 °C), the Michaelis constant (Km) turned out to be 116 µM.

B3: SfPK (Shigella flexneri promiscuous kinase) (Shigella flexneri) (protein)
chain: SIPPGNDVTTKPDLYYLTNDNAIDSLALLPPPPQIGSIAFLNDQAMYEKGRLLRNTERGKLAAEDANLSSGGVANVFSAAFGSPITAKDSPELHKLLTNMIEDAGDLATRSAKEYYMRIRPFAFYGVSTCNTKEQDTLSRNGSYPSGHTSIGWATALVLSEINPARQDTILKRGYELGDSRVICGYHWQSDVDAARIVGSAIVATLHSNPVFQAQLQKAKDEFANNQKK
On to B3, for which the Km in data set [3] was determined as 16 µM.

B4: ScPK (Saccharomyces cerevisiae promiscuous kinase) (Saccharomyces cerevisiae S288C) (protein)
chain: MVQESRPGSVRSYSVGYQARSRSSSQRRHSLTRQRSSQRLIRTISIESDVSNITDDDDLRAVNEGVAGVQLDVSETANKGPRRASATDVTDSLGSTSSEYIEIPFVKETLDASLPSDYLKQDILNLIQSLKISKWYNNKKIQPVAQDMNLVKISGAMTNAIFKVEYPKLPSLLLRIYGPNIDNIIDREYELQILARLSLKNIGPSLYGCFVNGRFEQFLENSKTLTKDDIRNWKNSQRIARRMKELHVGVPLLSSERKNGSACWQKINQWLRTIEKVDQWVGDPKNIENSLLCENWSKFMDIVDRYHKWLISQEQGIEQVNKNLIFCHNDAQYGNLLFTAPVMNTPSLYTAPSSTSLTSQSSSLFPSSSNVIVDDIINPPKQEQSQDSKLVVIDFEYAGANPAAYDLANHLSEWMYDYNNAKAPHQCHADRYPDKEQVLNFLYSYVSHLRGGAKEPIDEEVQRLYKSIIQWRPTVQLFWSLWAILQSGKLEKKEASTAITREEIGPNGKKYIIKTEPESPEEDFVENDDEPEAGVSIDTFDYMAYGRDKIAVFWGDLIGLGIITEEECKNFSSFKFLDTSYL
Consider B4, for which the Michaelis constant (Km) in the data set “purified protein [4]” worked out at 1250 µM.

B5: MtIPK (Methanolobus tindarius isopentenyl phosphate kinase) (Methanolobus tindarius DSM 2278) (protein)
chain: MDNNNITILKIGGSVITDKSADDGTARLSEIERIAAEISGFEGKLIIVHGAGSFGHPQVKRFGLTGKFDHEGSIITHMSVRKLNTMVVETLNSAGINALPVHPMACAISSNSRIKSMFREQIEEMLANGFVPVLHGDMVMDTDLGTSVLSGDQIVPYLAIQMKASRIGIGSAEEGVLDDKGGVIPLINNENFDEIKAYLSGSANTDVTGGMLGKVLELLELSEQSNSTSYIFNAGNTGNISDFLSGKNIGTAIGAGTI
Regarding B5, in the data set “purified protein [2]” (optimal conditions (optimum pH 7.5, 35 °C), 35.0 °C), the Km stood at 65 µM.
